Molecular target: the molecule itself
Assay: negative-stain electron microscopy

B1: Mod5 (enzyme, S. cerevisiae, UniProt P07884 1-428, looked up)
chain: MLKGPLKGCLNMSKKVIVIAGTTGVGKSQLSIQLAQKFNGEVINSDSMQVYKDIPIITNKHPLQEREGIPHHVMNHVDWSEEYYSHRFETECMNAIEDIHRRGKIPIVVGGTHYYLQTLFNKRVDTKSSERKLTRKQLDILESTDPDVIYNTLVKCDPDIATKYHPNDYRRVQRMLEIYYKTGKKPSETFNEQKITLKFDTLFLWLYSKPEPLFQRLDDRVDDMLERGALQEIKQLYEYYSQNKFTPEQCENGVWQVIGFKEFLPWLTGKTDDNTVKLEDCIERMKTRTRQYAKRQVKWIKKMLIPDIKGDIYLLDATDLSQWDTNASQRAIAISNDFISNRPIKQERAPKALEELLSKGETTMKKLDDWTHYTCNVCRNADGKNVVAIGEKYWKIHLGSRRHKSNLKRNTRQADFEKWKINKKETVE
Q: Does B1 bind?
A: Result: binds

From PMC5468478 (FEBS letters, 2017)
